Consider two molecules from patent US20220127365A1 (DREN BIO, published 2022).

Assay [1] addresses cynomolgus CD94 (cynomolgus monkey). The assay is described as follows: cell-based or functional assay.
In assay [2] the target is T1, human CD94 (human, UniProt Q13241 1-179).
T1 sequence (looked up): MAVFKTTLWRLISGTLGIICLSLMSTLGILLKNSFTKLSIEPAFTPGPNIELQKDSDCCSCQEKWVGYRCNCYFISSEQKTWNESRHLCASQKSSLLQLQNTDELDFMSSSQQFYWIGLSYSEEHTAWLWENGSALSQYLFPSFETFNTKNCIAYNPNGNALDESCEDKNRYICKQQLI
The assay is described as follows: cell-based or functional assay.

Assay [3] has as its target T1, human CD94. The assay is described as follows: flow cytometry titration of Alexa Fluor 647 conjugate on CLPD-NK patient cells (CD3-CD16+); CLPD-NK cells. Here is the method: (§1) The ATX-130 antibody was produced in Expi-CHO cells cultured in the presence of kifunensine, a potent inhibitor of the mannosidase I enzyme, which is used to produce ATX-130-KIF mimicking non-fucosylated antibody. PBMCs of healthy donors were used for antibody staining ATX-130 antibody was titrated from 50 nM to 0.02 nM. Secondary anti-human antibody labeled with Alexa Fluor 647 was used to detect binding on CD3−CD56 bright NK cells. ATX-130-KIF antibody conjugated with Alexa Fluor 647 was titrated from 50 nM to 0.02 nM. T-LGLL cells were identified using CD3+CD16+ gating, while CLPD-NK cells were identified using CD3−CD16+ gating strategy. Titration curves and EC50 were generated using Graphpad Prism. […] Fluorescently labeled human IgG1-KIF isotype-KIF antibody was used as control. Arrows indicate ATX-130 and Human IgG1-KIF data points.
(§2) The affinity of the antibody clones was assessed by flow cytometry analysis. ATX-130-KIF mimicking non-fucosylated antibody was produced by culturing Expi-CHO cells cultured in the presence of kifunensine, a potent inhibitor of the mannosidase I enzyme. […] Thus, ATX-130 and ATX-130-KIF have similar binding affinity on primary human NK cells, cynomolgus NK cells, CLPD-NK cells, and T-LGLL cells.

Assay [4] has as its target T1, human CD94. The assay is described as follows: flow cytometry titration of Alexa Fluor 647 conjugate on T-LGLL patient cells (CD3+CD16+); T-LGLL cells. The procedure: as §1, §2
For assay [5], the target named is T2, cynomolgus CD94 (cynomolgus monkey).
T2 construct: whole, on cells; The construct expressed in HEK293 cells is not described further; also called cyno CD94; cynomolgus monkey CD94
The assay is described as follows: flow cytometry titration of Alexa Fluor 647 conjugate (50 nM to 0.02 nM) on primary cynomolgus NK cells. Here is the method:
as §1, §2
(In general: In flow cytometry, cells or beads pass a laser one at a time.)

Assay [6] addresses T1, human CD94. Put plainly: table column 'HLA-E blocking'; flow cytometry on NK cells of healthy donor PBMCs, antibody at saturating concentration, blocked ligand PE labeled HLA-E tetramer; percent blocking = 100-((percent HLA-E positive with antibody)/(percent HLA-E positive with isotype)*100). Here is the method: FIGS. 4A & 4B show the results of HLA-E tetramer blocking assays performed with anti-CD94 and commercially available anti-CD94 antibodies using flow cytometry. Healthy donor PBMCs were incubated with anti-CD94 antibodies. PE labeled HLA-E tetramer was then incubated with the cell and antibody mixture, and detected using flow cytometry. For HP-3B1, 131412, 12K45, DX22, 1M4 and 1E4, 2.5 μl of HLA-E tetramer reagent was used, while 5 μl was used for 18H3 and HP-3D9. Saturating concentrations of each antibody was used in this assay. The percent blocking was calculated as 100−((percent HLA-E positive for anti-CD94 antibody)/(percent HLA-E positive for isotype)*100).
Healthy donor PBMCs were seeded in 96-well plates at a density of 100,000 cells per well, incubated with human Fc block (Biolegend) and cell viability dye (Thermo Fisher) for 30 minutes on ice and protected from light. The cells were washed once with FACS buffer (PBS with 2% IgG low FBS). anti-CD94 antibodies at EC80 concentrations were incubated with cells for 30 minutes on ice and protected from light. After incubation with the anti-CD94 antibodies, the cells were washed and incubated with HLA-E tetramer PE (Creative Biolabs), anti-CD3 pacific blue-labelled, and anti-CD56 FITC-labelled antibodies (Biolegend) for 30 minutes on ice and protected from light. The cells then received a final wash in FACS buffer before quantification on the Cytoflex (Beckman Coulter). All data acquisition and fluorescence compensation were performed using CytoFlex (Beckman Coulter, Atlanta, Ga.). Data analysis was performed using FlowJo software. NK cells were identified through gating on lymphocytes on the forward and side scatter, followed by doublet and dead cell exclusion, and gated on the CD3−CD56+ population. HLA-E expression was then quantified on the CD3−CD56+NK cell population. Percent blocking was calculated as 100−((percent HLA-E positive for anti-CD94 antibody)/(percent HLA-E positive for isotype)*100).

Assay [7] concerns the target T1, human CD94. Put plainly: competition assay, flow cytometry on NK cells of healthy donor PBMCs; 18H3-AF647 titrated, concurrently Mouse IgG1 control (or 1M4 at 8.5 µg/ml). The procedure:
(§3) FIGS. 5A-5B show the results of competition assays performed for 18H3 anti-CD94 antibody evaluation. For all competition assays, 18H3 was incubated with PBMCs at a concentration of 1.3 μg/ml. […] Commercially available anti-CD94 antibodies were titrated and incubated with PBMCs concurrently with 18H3. […] To test competition between 18H3 and 1M4/1E4, 1M4 and 1E4 were incubated with cells at concentrations of 8.5 μg/ml and 11 μg/ml, respectively. 18H3 was fluorescently tagged with AF647 and incubated with cells concurrently with […].
(§4) Healthy donor PBMCs were seeded in 96-well plates at a density of 100,000 cells per well, incubated with human Fc block (Biolegend) and cell viability dye (Thermo Fisher) for 30 minutes on ice and protected from light. The cells were washed once with FACS buffer (PBS with 2% IgG low FBS). Unconjugated anti-CD94 antibodies at EC80 concentrations, CD3 FITC and CD56 PE antibodies, and APC-labeled anti-CD94 antibodies were incubated with cells for 30 minutes on ice and protected from light. The cells then received a final wash in FACS buffer before quantification on the Cytoflex (Beckman Coulter). All data acquisition and fluorescence compensation were performed using CytoFlex (Beckman Coulter, Atlanta, Ga.). Data analysis was performed using FlowJo software. […] Anti-CD94 APC was then quantified on the CD3−CD56+NK cell population. […]

The target of assay [8] is T1, human CD94. Put plainly: flow cytometry titration (100 nM to 0.046 nM) on healthy-donor PBMCs, gated NK cells; EC50 from GraphPad Prism. Here is the method:
Peripheral blood monocuclear cells (PBMCs) of healthy donor HD-40 were used for antibody staining. 18H3 antibody was titrated from 100 nM to 0.046 nM in 1:3 dilutions and incubated with PBMCs. CD3 and CD56 antibodies were used to identify NK cells on the flow scatter. 18H3 antibody binding on […] and CD56 bright NK cells was used to assess affinity of 18H3. Titration curves and EC50 were generated using Graphpad Prism. […] Human IgG1 isotype control with secondary antibody (hIgG1) and goat (Fab)2 fragment anti-human Fcy-specific secondary antibody AF647 only (2ndary Ab) were used as controls.
Healthy donor PBMCs were seeded in 96 well plates at a density of 100,000 cells per well, incubated with human Fc block (Biolegend) and cell viability dye (Thermo Fisher) for 30 minutes on ice and protected from light. […] After incubation, the cells received a final wash in FACS buffer before quantification on the Cytoflex (Beckman Coulter). All data acquisition and fluorescence compensation were performed using CytoFlex (Beckman Coulter, Atlanta, Ga.). […] CD94 expression was then quantified on the CD3−CD56+NK cell population. […]
The affinity of the antibody clones was also assessed by flow cytometry analysis.

Assay [9] addresses T1, human CD94. Put plainly: competition assay, flow cytometry on NK cells of healthy donor PBMCs; 18H3-AF647 titrated in the presence of 1E4 at 11 µg/ml. Here is the method:
as §3, §4

B1: ATX-130-KIF (antibody, human IgG1, V domains shown)
VH: EVQLLESGGGLVKPGGSLRLSCAASGFTFSSYSMNWVRQAPGKGLEWVSSISTSSNFIYYADSVKGRFTISRDNAKNSLYLQMNSLRAEDTAVYYCARDLGRYYYYMDVWGKGTTVTVSS
VL: DIVMTQSPSSLSASVGDRVTITCRASQSISSWLAWYQQKPGKAPKSLIYAASSLQSGVPSKFSGSGSGTDFTLTISSLQPEDVATYYCQKYNSAPFTFGPGTKVDIK
notes: also called KIF-treated ATX-130; ATX-130-KIF Alexa Fluor 647
As to B1, the “IC50 of cynomolgus NK cell depletion, ADCC assay with cynomolgus PBMCs” value in the assay with cynomolgus CD94 [1] was 0.3 ng/mL. Also, in the assay with human CD94 [2], the “IC50 of CLPD-NK leukemic cell depletion, ADCC assay with patient PBMCs” value was 0.6 ng/mL; the “IC50 of T-LGLL leukemic cell depletion, ADCC assay with patient PBMCs” value turned out to be 0.2 ng/mL; the “IC50 of human NK cell depletion, ADCC assay with healthy donor PBMCs” value stood at 0.8 ng/mL. In addition, the EC50 (commonly the concentration needed to bring the measured effect to its halfway point) with human CD94 [3] worked out at 1.4 nM. The EC50 with human CD94 [4] was 3 nM. The EC50 with cynomolgus CD94 [5] is 1 nM.

B2: anti-CD94 antibody 18H3 (antibody, V domains shown)
VH: EVQLVQSGAEVKKPGESLKISCKGSGYRFTSYWIGWVRQMPGKGLEWMGIIYPGDSDTRYSPSFQGQVIISADKSITTAFLQWSSLKASDTAMYYCARPFDYGGSPGYFDYWGQGTLVTVSS
VL: DIQMTQSPSTLSASVGDRVTITCRASQSIRSWLAWYQQKPGKAPKLLIYKASSLESGVPSRFSGSGSGTEFTLTISSLQPDDFATYYCQQYNTFWTFGQGTKVEIK
notes: Human variable domains from ATX-Gx Alloy transgenic mice; Screened as hybridoma supernatant; also called human IgG1 18H3
Turning to B2, in the assay with human CD94 [6], the HLA-E blocking is 0%. The EC50 (read off the curve) (commonly the concentration that produces a half-maximal response) is approximately 0.8 nM with human CD94 [7] and approximately 3 nM in the assay with human CD94 [9]. The molecule further showed an EC50 with human CD94 [8] of 2.6 nM.
